Laboratory results as given in patent US20170107294A1 (NORDLANDSSYKEHUSET HF, published 2017).

T1: human FcgRIIb ectodomains fused to GST (human; Schistosoma japonicum, UniProt P31994 43-217)
T1 construct: extracellular domain; also called hFcgRIIb; not shown: Schistosoma japonicum GST
T1 sequence (looked up): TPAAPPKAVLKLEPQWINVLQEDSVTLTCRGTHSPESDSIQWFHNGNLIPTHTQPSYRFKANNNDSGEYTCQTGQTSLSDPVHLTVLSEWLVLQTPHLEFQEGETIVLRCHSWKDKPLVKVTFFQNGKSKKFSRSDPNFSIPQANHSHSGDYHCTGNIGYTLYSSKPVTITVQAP

T2: human CD14 (human, UniProt P08571 20-345)
T2 construct: whole, on cells; also called CD14 on human monocytes
T2 sequence (looked up): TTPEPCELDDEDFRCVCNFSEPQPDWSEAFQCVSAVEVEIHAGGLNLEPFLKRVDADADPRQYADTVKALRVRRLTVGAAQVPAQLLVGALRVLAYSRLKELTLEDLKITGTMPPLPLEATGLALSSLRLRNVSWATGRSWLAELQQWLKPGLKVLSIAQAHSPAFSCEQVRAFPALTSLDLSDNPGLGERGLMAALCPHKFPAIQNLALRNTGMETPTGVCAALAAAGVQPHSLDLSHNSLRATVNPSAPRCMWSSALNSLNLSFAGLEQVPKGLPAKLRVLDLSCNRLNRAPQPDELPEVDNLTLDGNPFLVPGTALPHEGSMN


Columns and labels:
[1] = target: T3, human C1q (hC1q), biotinylated (human, UniProt P02745 23-245; P02746 28-253; P02747 29-245, biotinylated); assay: ELISA, coated Ab, biotinylated hC1q
T3 construct: also called complement component C1q
T3 sequence (P02745 23-245 limits assumed, chain 1 of 3): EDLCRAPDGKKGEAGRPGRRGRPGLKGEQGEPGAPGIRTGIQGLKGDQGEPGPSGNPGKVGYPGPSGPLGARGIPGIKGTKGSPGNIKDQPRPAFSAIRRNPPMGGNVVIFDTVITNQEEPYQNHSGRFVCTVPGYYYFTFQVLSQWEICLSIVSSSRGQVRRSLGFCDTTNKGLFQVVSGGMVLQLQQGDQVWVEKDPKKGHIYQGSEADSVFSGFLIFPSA
T3 sequence (P02746 28-253 limits assumed, chain 2 of 3): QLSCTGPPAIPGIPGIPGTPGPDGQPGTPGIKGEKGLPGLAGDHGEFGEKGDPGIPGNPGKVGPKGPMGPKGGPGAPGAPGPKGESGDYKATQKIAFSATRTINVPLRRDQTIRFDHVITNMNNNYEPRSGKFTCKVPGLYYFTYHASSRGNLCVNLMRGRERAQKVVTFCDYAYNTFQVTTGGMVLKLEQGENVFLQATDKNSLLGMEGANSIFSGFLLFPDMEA
T3 sequence (P02747 29-245 limits assumed, chain 3 of 3): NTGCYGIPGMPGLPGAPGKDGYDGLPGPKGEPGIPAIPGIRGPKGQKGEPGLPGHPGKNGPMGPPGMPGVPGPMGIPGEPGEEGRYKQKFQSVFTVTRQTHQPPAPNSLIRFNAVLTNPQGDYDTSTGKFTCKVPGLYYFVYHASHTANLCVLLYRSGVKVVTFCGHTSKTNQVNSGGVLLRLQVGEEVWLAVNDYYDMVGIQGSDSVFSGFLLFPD
Experimental: (§1) Ninety-six-well plates (Nunc, Roskilde, Denmark) were coated with serial dilution of the Abs (6.0-0.09 mg/ml) and incubated overnight at 4° C. followed by washing three times with PBS/Tween (pH 7.4). The wells were blocked with 4% skimmed milk (Neogen Europe, Auchincruive, U.K.) for 1 h at room temperature and then washed in PBS/Tween (pH 6.0). Purified hFcRn-GST or pFcRn-GST (1 mg/ml) were diluted in 4% skimmed milk in PBS/Tween (pH 6.0) and preincubated with an HRP-conjugated anti-GST Ab (GE Healthcare U.K., Buckinghamshire, U.K.) diluted 1:5000 and added to the wells. The plates were incubated for 1 h at room temperature and washed with PBS/Tween (pH 6.0). Bound receptor was detected by adding 100 ml of 3,39,5,59-tetramethylbenzidine substrate (Calbiochem-Novabiochem, Nottingham, U.K.). The absorbance was measured at 450 nm using a Sunrise TECAN spectrophotometer. The assay described above was also performed using PBS/Tween (pH 7.4) in all steps. The same setup was used with GST-fused versions of hFcgRI, hFcgRIIa (allotype His131), hFcgRIIb, hFcgRIIIa (allotype Val158), and hFcgRIIIb (1 mg/ml each). In addition, a biotinylated human C1q (hC1 q; 4 mg/ml) preparation was incubated with the Abs and detected using ALP-conjugated streptavidin (GE Healthcare). Absorbance was measured at 405 nm.

[2] = target: T4, human FcgRIIIa (allotype Val158) ectodomains fused to GST (human; Schistosoma japonicum, UniProt P08637 17-208); assay: ELISA, coated Ab, GST-fused receptor
T4 construct: extracellular domain; also called hFcgRIIIa; not shown: Schistosoma japonicum GST
Experimental: as §1

[3] = target: T5, human FcgRIIIb ectodomains fused to GST (human; Schistosoma japonicum, UniProt O75015 17-200); assay: ELISA, coated Ab, GST-fused receptor
T5 construct: extracellular domain; also called hFcgRIIIb; not shown: Schistosoma japonicum GST
Experimental: as §1

[4] = target: T1, human FcgRIIb ectodomains fused to GST; assay: ELISA, coated Ab, GST-fused receptor
Experimental: as §1

[5] = target: T6, human FcgRI ectodomains fused to GST (human; Schistosoma japonicum, UniProt P12314 16-292); assay: ELISA, coated Ab, GST-fused receptor
T6 construct: extracellular domain; also called hFcgRI; not shown: Schistosoma japonicum GST
Experimental: as §1

[6] = target: T2, human CD14; assay: flow cytometry, human whole blood, displacement of 18D11 mIgG1 from monocytes
Source text: Fresh human or porcine whole blood was drawn into tubes containing the anticoagulants lepirudin (Refludan; Pharmion, Copenhagen, Denmark) or EDTA, respectively. […] Endotoxin-free Dulbecco phosphate buffered saline, PBS (Sigma-Aldrich), was used for diluting the Abs. […] Their binding was detected either by using a secondary PEconjugated anti-mouse IgG or through direct FITC fluorescence. Erythrocytes were lysed using FACS Lysing solution (BD Biosciences, Franklin Lakes, N.J.; human blood) or a solution of 0.16 M ammonium chloride, 10 mM sodium bicarbonate, 0.12 mM EDTA (Tritiplex III) and 0.04% (v/v) paraformaldehyde (porcine blood). In subsequent flow cytometry analyses, human monocyte and porcine granulocyte populations were selected based on the forward scatter-side scatter dot plot, and CD14 binding was recorded as mean or median fluorescence intensity, respectively.

Binder | binding result [1] | binding result [2] | binding result [3] | binding result [4] | binding result [5] | binding result [6]
recombinant 18D11 (r18D11), recombinant anti-human CD14 IgG2/4 Ab (antibody, Mouse/human chimera: murine variable regions, human IgG2/4 hybrid heavy constant region (CH1 and hinge from IgG2, CH2 and CH3 from IgG4), human kappa; Made in HEK293-EBNA cells; also called recombinant anti-human CD14 Ab) heavy: EVQLVESGGGLMQPKGSLKLSCAASGFTFKTYALNWVRQAPGTGLEWVARIRSKSNNYTTYYADSVKDRFTISRDDSQNMLYLQMNNLKTEDTAMYYCVRPQSGTSFAYWGQGTLVTVSAASTKGPSVFPLAPCSRSTSESTAALGCLVKDYFPEPVTVSWNSGALTSGVHTFPAVLQSSGLYSLSSVVTVPSSNFGTQTYTCNVDHKPSNTKVDKTVERKCCVECPPCPAPPVAGPSVFLFPPKPKDTLMISRTPEVTCVVVDVSQEDPEVQFNWYVDGVEVHNAKTKPREEQFNSTYRVVSVLTVLHQDWLNGKEYKCKVSNKGLPSSIEKTISKAKGQPREPQVYTLPPSQEEMTKNQVSLTCLVKGFYPSDIAVEWESNGQPENNYKTTPPVLDSDGSFFLYSRLTVDKSRWQEGNVFSCSVMHEALHNHYTQKSLSLSLGK light: NIVLTQSPASLAVSLGQRATISCRASESVDSYGNSFMHWYQQKPGQPPKLLIYLASNLESGVPARFSGSGSRTDFTLTIDPVEADDVATYYCQQNNGDPYTFGGGTKLEIIRTVAAPSVFIFPPSDEQLKSGTASVVCLLNNFYPREAKVQWKVDNALQSGNSQESVTEQDSKDSTYSLSSTLTLSKADYEKHKVYACEVTHQGLSSPVTKSFNRGEC | no binding | no binding | no binding | no binding | no binding | –
18D11 IgG1 F(ab')2 (Diatec) (other, F(ab')2 fragment of the mouse IgG1 clone 18D11, bought; also called 18D11 F(ab)92; F(ab9)2 18D11) VH: EVQLVESGGGLMQPKGSLKLSCAASGFTFKTYALNWVRQAPGTGLEWVARIRSKSNNYTTYYADSVKDRFTISRDDSQNMLYLQMNNLKTEDTAMYYCVRPQSGTSFAYWGQGTLVTVSAA VL: NIVLTQSPASLAVSLGQRATISCRASESVDSYGNSFMHWYQQKPGQPPKLLIYLASNLESGVPARFSGSGSRTDFTLTIDPVEADDVATYYCQQNNGDPYTFGGGTKLEIIR | – | – | – | – | – | binds
recombinant Mil2 (rMil2), recombinant anti-porcine CD14 IgG2/4 Ab (antibody, Mouse/human chimera with human IgG2/4 hybrid heavy constant region and human kappa) heavy: QVRLQQPGAELVRPGASVKLSCKASGYTFTTYWMNWVKQRPEDGLEWIGRIDPYDSETHYNQNFKDKAILTVDKSSSTAYMQLSSLTYEDSAVYYCTRKEGRQWGAYFDYWGQGTTLTVSSASTKGPSVFPLAPCSRSTSESTAALGCLVKDYFPEPVTVSWNSGALTSGVHTFPAVLQSSGLYSLSSVVTVPSSNFGTQTYTCNVDHKPSNTKVDKTVERKCCVECPPCPAPPVAGPSVFLFPPKPKDTLMISRTPEVTCVVVDVSQEDPEVQFNWYVDGVEVHNAKTKPREEQFNSTYRVVSVLTVLHQDWLNGKEYKCKVSNKGLPSSIEKTISKAKGQPREPQVYTLPPSQEEMTKNQVSLTCLVKGFYPSDIAVEWESNGQPENNYKTTPPVLDSDGSFFLYSRLTVDKSRWQEGNVFSCSVMHEALHNHYTQKSLSLSLGK light: DIVMTQSQKFMSTSVGDRVSVTCKASQYVGTNVAWYQQKPGQSPKALIQSASYRCSGVPDRFTGSGSGTDFTLTISNVQSEDLADYFCQQYNTYVTFGGGTKLELKRTVAAPSVFIFPPSDEQLKSGTASVVCLLNNFYPREAKVQWKVDNALQSGNSQESVTEQDSKDSTYSLSSTLTLSKADYEKHKVYACEVTHQGLSSPVTKSFNRGEC | no binding | no binding | no binding | no binding | no binding | –
